The values below come from PMC2112147.

The target of assay [1] is actinogelin (mouse (endogenous in Ehrlich tumor cells)) (UniProt Q7TPR4). Description: AUC.
Assay [2] shares this target. The experiment in a line: cross-linking.
Assay [3] has as its target rabbit skeletal muscle actin (rabbit) (UniProt P68135). The experiment in a line: co-sedimentation. Particulars: scale: G-actin units per actinogelin dimeric unit.

Chain of actinogelin (Q7TPR4 whole entry): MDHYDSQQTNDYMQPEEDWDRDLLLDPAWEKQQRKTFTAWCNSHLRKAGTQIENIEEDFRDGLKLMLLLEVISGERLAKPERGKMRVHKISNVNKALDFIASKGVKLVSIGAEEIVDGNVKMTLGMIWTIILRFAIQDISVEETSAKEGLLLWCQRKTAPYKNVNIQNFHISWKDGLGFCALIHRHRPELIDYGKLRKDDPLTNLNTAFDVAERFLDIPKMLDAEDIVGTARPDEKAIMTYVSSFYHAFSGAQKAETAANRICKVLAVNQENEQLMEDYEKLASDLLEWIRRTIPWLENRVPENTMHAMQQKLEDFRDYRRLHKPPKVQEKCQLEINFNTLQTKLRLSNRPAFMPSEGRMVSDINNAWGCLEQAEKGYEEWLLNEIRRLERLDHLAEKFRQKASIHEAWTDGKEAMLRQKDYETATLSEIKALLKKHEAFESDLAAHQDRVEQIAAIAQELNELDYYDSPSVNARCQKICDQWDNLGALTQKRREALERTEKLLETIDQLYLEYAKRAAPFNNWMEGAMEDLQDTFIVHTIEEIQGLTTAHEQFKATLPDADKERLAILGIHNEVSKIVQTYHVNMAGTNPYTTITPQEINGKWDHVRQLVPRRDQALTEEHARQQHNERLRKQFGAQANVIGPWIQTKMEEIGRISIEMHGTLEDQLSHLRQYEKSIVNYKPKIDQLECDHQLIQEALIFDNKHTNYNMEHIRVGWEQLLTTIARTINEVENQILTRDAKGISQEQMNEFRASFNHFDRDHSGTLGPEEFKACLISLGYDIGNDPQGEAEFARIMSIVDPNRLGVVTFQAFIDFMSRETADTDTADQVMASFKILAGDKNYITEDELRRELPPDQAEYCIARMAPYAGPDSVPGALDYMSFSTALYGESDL

Regarding “actinogelin (from UniProt Q7TPR4 1-892) (natural protein)”, the stoichiometry N (as a rule, a count of units in the complex or per binding partner) in assay [1] was 2 subunits; in assay [2], 2 subunits; in assay [3], 10 to 12.
